Usually Kd stands for a measure of binding affinity in units of concentration. Higher therefore signals lower affinity.

One molecule from article PMC7490560 (2020) can be followed below.

The target of assay [1] is T1, ELF3 (Homo sapiens, UniProt P78545).
T1 chain: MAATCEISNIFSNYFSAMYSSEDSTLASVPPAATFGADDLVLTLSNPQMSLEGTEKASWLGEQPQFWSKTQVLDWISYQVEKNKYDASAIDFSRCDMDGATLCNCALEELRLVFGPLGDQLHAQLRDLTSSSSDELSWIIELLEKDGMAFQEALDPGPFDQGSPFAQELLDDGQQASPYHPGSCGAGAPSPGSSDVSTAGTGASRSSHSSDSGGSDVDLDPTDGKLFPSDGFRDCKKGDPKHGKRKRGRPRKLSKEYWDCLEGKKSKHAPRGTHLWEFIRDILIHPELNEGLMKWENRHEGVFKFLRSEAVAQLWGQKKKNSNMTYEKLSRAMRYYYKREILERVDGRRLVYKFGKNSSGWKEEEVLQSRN
Kind of assay: FCCS (live HEK293T cells).

The target of a further assay is T2, CREBL2 (Homo sapiens, UniProt O60519).
T2 chain: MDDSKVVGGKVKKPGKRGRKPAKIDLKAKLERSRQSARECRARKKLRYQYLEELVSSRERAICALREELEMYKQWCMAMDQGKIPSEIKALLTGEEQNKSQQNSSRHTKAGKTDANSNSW
Kind of assay: FCCS (live HEK293T cells).

Assay [2] deals with T3, CEBPG (Homo sapiens, UniProt P53567).
T3 chain: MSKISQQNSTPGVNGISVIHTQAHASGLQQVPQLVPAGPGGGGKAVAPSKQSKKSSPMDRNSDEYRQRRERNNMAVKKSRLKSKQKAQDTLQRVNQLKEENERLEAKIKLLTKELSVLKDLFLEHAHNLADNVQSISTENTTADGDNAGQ
Kind of assay: FCCS (live HEK293T cells).

A further assay deals with EIF3J (Homo sapiens, UniProt O75822). Description: FCCS (live HEK293T cells).
The target in assay [3] is T4, FOSL2 (Homo sapiens, UniProt P15408).
T4 chain: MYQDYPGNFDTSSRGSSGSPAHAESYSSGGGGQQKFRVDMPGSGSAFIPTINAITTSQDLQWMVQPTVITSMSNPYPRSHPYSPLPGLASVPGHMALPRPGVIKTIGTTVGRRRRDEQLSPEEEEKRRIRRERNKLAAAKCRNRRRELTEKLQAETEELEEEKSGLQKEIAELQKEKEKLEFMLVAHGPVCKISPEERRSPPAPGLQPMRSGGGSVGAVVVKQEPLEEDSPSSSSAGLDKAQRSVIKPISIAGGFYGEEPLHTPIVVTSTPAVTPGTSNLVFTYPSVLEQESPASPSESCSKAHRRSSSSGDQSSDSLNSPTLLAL
Kind of assay: FCCS (live HEK293T cells).

In assay [4] the target is T1, ELF3. Description: DULIP (scaled).
The next assay concerns the target T5, DDIT3 (Homo sapiens, UniProt P35638).
T5 chain: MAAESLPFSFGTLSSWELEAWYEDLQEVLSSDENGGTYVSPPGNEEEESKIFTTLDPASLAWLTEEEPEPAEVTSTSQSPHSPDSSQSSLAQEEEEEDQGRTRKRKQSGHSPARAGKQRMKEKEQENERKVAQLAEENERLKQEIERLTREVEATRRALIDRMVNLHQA
Kind of assay: DULIP (scaled).

In a further assay the target is T6, FOSB (Homo sapiens, UniProt P53539).
T6 chain: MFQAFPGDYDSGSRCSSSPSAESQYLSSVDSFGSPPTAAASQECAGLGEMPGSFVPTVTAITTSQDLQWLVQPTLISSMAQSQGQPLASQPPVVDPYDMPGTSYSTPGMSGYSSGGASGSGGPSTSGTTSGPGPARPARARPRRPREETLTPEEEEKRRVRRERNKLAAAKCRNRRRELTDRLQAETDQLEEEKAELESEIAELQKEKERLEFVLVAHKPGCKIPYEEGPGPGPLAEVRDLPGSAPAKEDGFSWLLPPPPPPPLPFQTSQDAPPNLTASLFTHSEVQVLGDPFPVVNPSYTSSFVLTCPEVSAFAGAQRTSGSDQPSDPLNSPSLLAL
Description: DULIP (scaled).

In assay [5] the target is T3, CEBPG. Description: DULIP (scaled).
The target in assay [6] is T4, FOSL2. Description: DULIP (scaled).
For the next assay, the target named is T7, MAP2K6 (Homo sapiens, UniProt P52564).
T7 chain: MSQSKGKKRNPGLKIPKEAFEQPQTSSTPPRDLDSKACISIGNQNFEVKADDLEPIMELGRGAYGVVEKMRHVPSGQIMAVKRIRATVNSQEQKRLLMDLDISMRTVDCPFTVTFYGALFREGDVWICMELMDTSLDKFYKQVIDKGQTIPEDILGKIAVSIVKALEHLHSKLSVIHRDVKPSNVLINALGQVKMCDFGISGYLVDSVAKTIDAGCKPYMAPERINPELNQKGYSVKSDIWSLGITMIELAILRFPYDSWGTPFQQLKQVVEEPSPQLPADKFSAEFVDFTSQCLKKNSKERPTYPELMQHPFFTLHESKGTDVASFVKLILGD
Kind of assay: DULIP (scaled).

Bounds are passed on as bounds.

Sequence of EIF3J (O75822 2-258): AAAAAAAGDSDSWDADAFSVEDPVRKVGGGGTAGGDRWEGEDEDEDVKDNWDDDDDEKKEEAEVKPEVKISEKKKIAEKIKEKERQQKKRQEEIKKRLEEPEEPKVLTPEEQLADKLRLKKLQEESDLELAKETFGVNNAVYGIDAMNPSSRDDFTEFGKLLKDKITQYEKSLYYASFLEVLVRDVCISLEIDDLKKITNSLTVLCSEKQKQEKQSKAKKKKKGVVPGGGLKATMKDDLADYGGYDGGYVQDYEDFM

B1: NRF2 (protein)
chain: MMDLELPPPGLPSQQDMDLIDILWRQDIDLGVSREVFDFSQRRKEYELEKQKKLEKERQEQLQKEQEKAFFAQLQLDEETGEFLPIQPAQHIQSETSGSANYSQVAHIPKSDALYFDDCMQLLAQTFPFVDDNEVSSATFQSLVPDIPGHIESPVFIATNQAQSPETSVAQVAPVDLDGMQQDIEQVWEELLSIPELQCLNIENDKLVETTMVPSPEAKLTEVDNYHFYSSIPSMEKEVGNCSPHFLNAFEDSFSSILSTEDPNQLTVNSLNSDATVNTDFGDEFYSAFIAEPSISNSMPSPATLSHSLSELLNGPIDVSDLSLCKAFNQNHPESTAEFNDSDSGISLNTSPSVASPEHSVESSSYGDTLLGLSDSEVEELDSAPGSVKQNGPKTPVHSSGDMVQPLSPSQGQSTHVHDAQCENTPEKELPVSPGHRKTPFTKDKHSSRLEAHLTRDELRAKALHIPFPVEKIINLPVVDFNEMMSKEQFNEAQLALIRDIRRRGKNKVAAQNCRKRKLENIVELEQDLDHLKDEKEKLLKEKGENDKSLHLLKKQLSTLYLEVFSMLRDEDGKPYSPSEYSLQQTRDGNVFLVPKSKKPDVKKN
B1: the Kd was > 10 µM with ELF3 [1]; > 10 µM with CREBL2; > 10 µM in the assay with CEBPG [2]; > 10 µM with EIF3J; > 10 µM with FOSL2 [3]; > 9 µM in the assay with ELF3 [4]. Moreover, the Kd in the assay with DDIT3, in the assay with FOSB, with CEBPG [5], in the assay with FOSL2 [6] and with MAP2K6 was > 9 µM each time.
